Laboratory results from patent publication US6423827 (UNIVERSITY OF MEDICINE AND DENTISTRY OF NEW JERSEY, dated 2002).

Target: T1, recombinant rat LAMP (limbic system-associated membrane protein) expressed at the surface of CHO cells (CHOL … (rat, UniProt Q62813 29-315, PI (GPI) linkage to the membrane at the processed C-terminus, at or near Asn315)); N-linked glycosylation (apparent 55 kDa))
T1 construct: The C-terminal limit 315 is only 'at or near'; also called LAMP cDNA transfected cells
T1 sequence: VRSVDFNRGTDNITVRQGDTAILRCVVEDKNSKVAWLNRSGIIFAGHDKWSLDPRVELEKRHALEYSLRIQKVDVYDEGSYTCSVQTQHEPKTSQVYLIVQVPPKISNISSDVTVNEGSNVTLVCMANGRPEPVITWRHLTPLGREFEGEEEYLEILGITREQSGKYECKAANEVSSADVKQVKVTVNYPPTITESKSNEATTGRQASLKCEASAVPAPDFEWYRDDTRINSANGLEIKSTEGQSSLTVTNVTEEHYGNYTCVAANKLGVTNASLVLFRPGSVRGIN
Assay: fluorescent beads coated with native LAMP, incubated with CHO cells expressing rat LAMP
Method: To test whether CHO_L cells can bind external LAMP, fluorescent synthetic beads of 2 μm diameter, which have reactive sites for covalently linking protein (Covasphere™ beads, Duke Scientific, Palo Alto, Calif.), were coated with native LAMP that had been released from hippocampal membranes with PI-specific phospholipase C. The beads were incubated with the recombinant cells and the extent of binding to the cell surface determined.

B1: native rat LAMP from hippocampal membranes (receptor)
chain: VRSVDFNRGTDNITVRQGDTAILRCVVEDKNSKVAWLNRSGIIFAGHDKWSLDPRVELEKRHALEYSLRIQKVDVYDEGSYTCSVQTQHEPKTSQVYLIVQVPPKISNISSDVTVNEGSNVTLVCMANGRPEPVITWRHLTPLGREFEGEEEYLEILGITREQSGKYECKAANEVSSADVKQVKVTVNYPPTITESKSNEATTGRQASLKCEASAVPAPDFEWYRDDTRINSANGLEIKSTEGQSSLTVTNVTEEHYGNYTCVAANKLGVTNASLVLFRPGSVRGIN
modifications: N-linked glycosylation (apparent 64-68 kDa)
notes: The C-terminal limit 315 is only 'at or near'; also called native LAMP; external LAMP
binding result: binds
